Reference: the supplement of paper PMC10219994
± gives the standard deviation of the averaged measurements.

B1: library; a variant is named by its letters at N, in order (parent)
chain: GAGACCGCAACTGAAAAGTTGTGGNNNNNATAGTGAGTCGCTGCCTGCAAAGACACAACT

Variants of: B1
Experiment: ligation selection enrichment (abundance after / before one-round selection) (fold); higher = more template-directed ligation activity
Conditions: with T7Psub CACGGAUGCUAAUACGACUCACUAUA; MgCl2 25 mM; 42 °C; 4 h; pH 8.5
Procedure: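 Lib-N5 ligase ribozyme library: five randomized core nucleotides (including the GGA motif of N8-1) within the fixed N8-1 ribozyme flanks, transcribed by T7 RNA polymerase with a 5'-triphosphate. The library (0.75 uM) was reacted with substrate T7Psub (6 uM) in 50 mM EPPS pH 8.5 with 25 mM MgCl2 at 42 C for 4 h. Ligated products were PAGE-purified, reverse transcribed and MiSeq sequenced; enrichment = abundance after selection / abundance before selection, with two independent replicates. The full transcript is built from the printed template flanks.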

Variant | ligation selection enrichment
TATAC | 0.22 ± 0.0018
TATAG | 0.995 ± 0.016
TATAA | 0.182 ± 0.077
TATAT | 0.817 ± 0.18
CAAGT | 0.157 ± 0.079
CATAA | 0.159 ± 0.023
CATAG | 0.237 ± 0.014
CATAC | 0.183 ± 0.029
CATAT | 1.2 ± 0.084
TACTT | 0.0933 ± 0.018
TACTG | 0.641 ± 0.095
TACTA | 0.168 ± 0.08
TACTC | 0.103 ± 0.036
TATCA | 0.404 ± 0.031
AAGTG | 0.294 ± 0.021
AAGTA | 0.24 ± 0.059
AAGTT | 0.257 ± 0.055
AAGTC | 0.146 ± 0.018
TACCG | 0.574 ± 0.048
TACCC | 0.202 ± 0.003
TACCA | 0.184 ± 0.011
TACCT | 0.599 ± 0.22
CAGCC | 0.14 ± 0.0077
CAGCT | 0.542 ± 0.24

Variant | ligation selection enrichment
CAGCG | 0.535 ± 0.21
CAGCA | 0.206 ± 0.024
GATCA | 0.464 ± 0.032
AAATA | 0.18 ± 0.034
AAATG | 0.495 ± 0.067
AAATT | 0.446 ± 0.12
AAATC | 0.171 ± 0.01
CACTC | 0.0626 ± 0.02
CACTA | 0.157 ± 0.041
CACTG | 0.286 ± 0.0061
CACTT | 0.105 ± 0.047
AACAT | 0.729 ± 0.14
AACAA | 0.209 ± 0.018
AACAG | 0.2191 ± 0.00078
AACAC | 0.159 ± 0.016
AACCT | 0.845 ± 0.39
AACCG | 0.526 ± 0.039
AACCC | 0.21 ± 0.032
AACCA | 0.1955 ± 0.00066
AACTC | 0.0963 ± 0.052
AACTT | 0.165 ± 0.066
AACTG | 0.506 ± 0.068
AACTA | 0.165 ± 0.013
TACGA | 1.32 ± 0.13

Variant | ligation selection enrichment
TACGC | 0.1908 ± 0.0012
TACGG | 0.379 ± 0.026
TACGT | 0.169 ± 0.044
GATAG | 0.538 ± 0.016
GATAT | 0.446 ± 0.11
GATAA | 0.189 ± 0.036
GATAC | 0.188 ± 0.058
CACGC | 0.163 ± 0.014
CACGG | 0.242 ± 0.057
CACGA | 0.471 ± 0.005
CACGT | 0.156 ± 0.046
CAGTA | 0.14 ± 0.0029
CAGTC | 0.125 ± 0.019
CAGTT | 0.238 ± 0.0081
CAGTG | 0.185 ± 0.004
AATCA | 0.454 ± 0.023
TACAT | 0.578 ± 0.12
TACAG | 0.393 ± 0.092
TACAC | 0.139 ± 0.042
TACAA | 0.211 ± 0.08
TAGTC | 0.182 ± 0.044
TAGTT | 0.218 ± 0.078
TAGTA | 0.19 ± 0.055
TAGTG | 0.6007 ± 0.0042

Variant | ligation selection enrichment
GAGAG | 0.663 ± 0.061
GAGAA | 0.508 ± 0.036
GAGAC | 0.765 ± 0.031
GAGAT | 11.7 ± 2.6
AAGAA | 0.428 ± 0.044
AAGAT | 16.6 ± 5
AAGAG | 0.632 ± 0.085
AAGAC | 0.661 ± 0.019
GAGTA | 0.27 ± 0.053
GAGTG | 0.274 ± 0.035
GAGTC | 0.168 ± 0.0064
GAGTT | 0.235 ± 0.074
GAGCA | 0.241 ± 0.082
GAGCT | 0.597 ± 0.27
GAGCG | 0.68 ± 0.023
GAGCC | 0.172 ± 0.0044
GAGGC | 0.17 ± 0.017
GAGGA | 0.501 ± 0.11
GAGGT | 0.143 ± 0.025
GAGGG | 0.345 ± 0.011
CAATC | 0.136 ± 0.047
CAATT | 0.343 ± 0.11
CAATG | 0.249 ± 0.03
CAATA | 0.143 ± 0.036

Variant | ligation selection enrichment
GACAT | 0.499 ± 0.025
GACAC | 0.176 ± 0.0093
GACAG | 0.419 ± 0.07
GACAA | 0.256 ± 0.04
AATAT | 0.299 ± 0.032
AATAA | 0.179 ± 0.049
AATAG | 0.39 ± 0.091
AATAC | 0.183 ± 0.0067
CAGGT | 0.108 ± 0.023
CAGGC | 0.244 ± 0.12
CAGGA | 0.231 ± 0.013
CAGGG | 0.186 ± 0.021
TAGCA | 0.21 ± 0.016
TAGCC | 0.16 ± 0.02
TAGCT | 0.547 ± 0.17
TAGCG | 0.52 ± 0.11
TAATC | 0.111 ± 0.048
TAATT | 0.211 ± 0.098
TAATA | 0.189 ± 0.0088
TAATG | 1.16 ± 0.27
GACTA | 0.161 ± 0.026
GACTT | 0.157 ± 0.075
GACTG | 0.762 ± 0.055
GACTC | 0.111 ± 0.037

Variant | ligation selection enrichment
AACGG | 0.32 ± 0.045
AACGT | 0.167 ± 0.013
AACGA | 0.673 ± 0.067
AACGC | 0.197 ± 0.017
GACCC | 0.238 ± 0.057
GACCG | 0.8601 ± 0.0032
GACCA | 0.239 ± 0.067
GACCT | 0.584 ± 0.26
CATCA | 0.288 ± 0.025
GAAGT | 0.121 ± 0.06
CAGAT | 9.36 ± 2
CAGAG | 0.399 ± 0.09
CAGAC | 0.374 ± 0.044
CAGAA | 0.343 ± 0.0039
AAGCC | 0.188 ± 0.021
AAGCT | 0.56 ± 0.29
AAGCG | 1.09 ± 0.27
AAGCA | 0.236 ± 0.065
CACCG | 0.217 ± 0.047
CACCT | 0.334 ± 0.14
CACCA | 0.112 ± 0.018
CACCC | 0.15 ± 0.0098
GACGC | 0.264 ± 0.024
GACGT | 0.154 ± 0.063

Variant | ligation selection enrichment
GACGG | 0.409 ± 0.066
GACGA | 1.29 ± 0.2
GAATT | 0.249 ± 0.099
GAATA | 0.175 ± 0.0089
GAATC | 0.205 ± 0.079
GAATG | 0.478 ± 0.011
TAGGA | 0.998 ± 0.19
TAGGC | 0.218 ± 0.0035
TAGGG | 0.637 ± 0.12
TAGGT | 0.115 ± 0.046
AAGGT | 0.203 ± 0.15
AAGGA | 0.431 ± 0.013
AAGGC | 0.146 ± 0.015
AAGGG | 0.331 ± 0.0073
TAGAC | 1.03 ± 0.29
TAGAT | 15.6 ± 3.6
TAGAA | 0.484 ± 0.075
TAGAG | 0.755 ± 0.058
CACAA | 0.132 ± 0.055
CACAG | 0.134 ± 0.035
CACAT | 1.16 ± 0.21
CACAC | 0.168 ± 0.031
AAAGT | 0.147 ± 0.088
